Source: paper doi:10.1101/2021.02.04.429857 (bioRxiv, 2021)

Target: the molecule itself
Test: cryo-EM structure

B1: Streptomyces coelicolor bacterioferritin (natural protein, UniProt Q9S2N0 1-167, looked up)
chain: MQGDPEVIEFLNEQLTAELTAINQYFLHAKLQDHKGWTKLAKYTRAESFDEMRHAEVLTDRILLLDGLPNYQRLFHVRVGQSVTEMFQADREVELEAIDRLRRGIEVMRAKHDITSANVFEAILADEEHHIDYLETQLDLIEKLGESLYLSTVIEQTQPDPSGPGSL
stoichiometry N: 24
